The target in assay [1] is T1, mouse BTN1A1-ECD-Fc (mouse; human, UniProt Q62556 27-247).
T1 construct: also called human IgG1-Fc-tagged mouse BTN1A1-ECD (dimer); mBTN1A1-Fc
T1 chain: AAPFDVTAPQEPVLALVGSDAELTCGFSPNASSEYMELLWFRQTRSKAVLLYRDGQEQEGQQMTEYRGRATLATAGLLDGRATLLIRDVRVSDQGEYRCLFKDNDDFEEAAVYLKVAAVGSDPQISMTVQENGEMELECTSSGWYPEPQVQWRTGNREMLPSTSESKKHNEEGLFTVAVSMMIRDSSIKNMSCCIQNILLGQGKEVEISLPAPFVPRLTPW
In words: SPR (Biacore X-100), antibody captured on chip, mouse BTN1A1-ECD-Fc 2-64 nM. As for the experimental part: The binding affinity between BTN1A1 and monoclonal anti-BTN1A1 antibodies STC1011, STC1012, and STC1029 was measured by Surface Plasmon Resonance (BIAcore™). Sensorgrams and saturation curves of antibody titrations of with human IgG1-Fc-tagged mouse BTN1A1-ECD (dimer) were recorded.
An Protein capture chip (BIAcore™) was coated with STC1011, STC1012, STC1029, or a control IgG1 antibody. No interaction between the IgG1 control and mouse BTN1A1-His was observed. Mouse BTN1A1-ECD-Fc was injected into the microfluidic channel on a Biacore™ X-100 instrument. KD values were obtained using fitting tools of the BIAevaluation software (BIAcore). FIGS. 29A-C provide sensograms showing real-time binding of dimeric BTN1A1-ECD-Fc (2-64 nM with 2-fold dilution) to immobilized STC1011, STC1012, and STC1029.

In assay [2] the target is T2, human BTN1A1 wild type, expressed on cells (human, UniProt Q13410 27-526, glycosylated at N55 and N215 (extracellular)).
T2 construct: also as whole-cell lysate in western blots; also called BTN1A1 WT
T2 sequence: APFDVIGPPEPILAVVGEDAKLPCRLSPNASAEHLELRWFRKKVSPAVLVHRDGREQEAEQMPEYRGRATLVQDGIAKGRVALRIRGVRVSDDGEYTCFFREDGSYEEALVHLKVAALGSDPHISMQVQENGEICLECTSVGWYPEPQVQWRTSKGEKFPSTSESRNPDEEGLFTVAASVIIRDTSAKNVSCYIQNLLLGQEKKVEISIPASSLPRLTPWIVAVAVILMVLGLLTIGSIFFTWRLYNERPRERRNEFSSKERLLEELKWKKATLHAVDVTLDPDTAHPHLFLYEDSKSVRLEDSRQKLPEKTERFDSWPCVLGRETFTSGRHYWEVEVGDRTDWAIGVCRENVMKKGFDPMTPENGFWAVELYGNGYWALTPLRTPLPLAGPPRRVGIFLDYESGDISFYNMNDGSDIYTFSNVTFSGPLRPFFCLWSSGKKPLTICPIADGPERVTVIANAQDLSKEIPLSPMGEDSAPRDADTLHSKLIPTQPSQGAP
As to the kind of experiment: FACS, HEK293T overexpressing BTN1A1, FITC secondary. As for the experimental part:
To identify anti-BTN1A1-Fc MAbs that were specific for and which preferentially bound human BTN1A1-Fc antigen, different types of assays were performed. In a screening assay to detect preferential binding of MAbs to BTN1A1, antibody binding was determined based on the measurement of fluorescence intensity through FACS analysis (using cell membrane bound proteins). By way of example, the assay was performed using the HEK293T human embryonic kidney cell line. Illustratively, HEK293T cells overexpressing BTN1A1 were incubated with anti-BTN1A1 antibodies existing in hybridoma culture supernatant. After washing, secondary antibodies conjugated with FITC were added as detection agent. Fluorescence intensity (measured fluorescence intensity, MFI) was measured via FACS I flow cytometry analysis to assess the relative binding of the anti-BTN1A1 antibodies to membrane bound BTN1A1 WT on cells. […] Based on the binding analysis, sixty seven candidate MAb-producing hybridomas were selected, grown in ADCF medium, and their supernatant containing monoclonal antibody was concentrated and purified.
(In general: In flow cytometry, cells or beads pass a laser one at a time.)

Assay [3] addresses T3, human BTN1A1-ECD-Fc (human, N-glycosylated (PNGase F sensitive)).
T3 construct: also called BTN1A1-Fc; hBTN1A1-Fc
As to the kind of experiment: direct ELISA, coated BTN1A1-Fc, native Ag. The procedure: In order to exclude the possibility that the observed binding was due to human Fc binding, ELISA was performed using human BTN1A1-Fc and human IgG1 control. The antigens BTN1A1-Fc and human IgG1 were coated onto ELISA plate. Antibodies were added to each well and binding was for each antibody determined by standard direct ELISA against the antigens. Human IgG1 binding antibodies were excluded from the candidates.
Background: ELISA stands for enzyme-linked immunosorbent assay.

Assay [4] concerns the target T3, human BTN1A1-ECD-Fc. As to the kind of experiment: Octet BLI, anti-mouse Fc capture. The procedure: Using a biosensor coated with anti-mouse Fc capture antibody, KD was determined by Kon and Koff. Antibodies with higher affinity (nanomolar range) were selected. Epitope binning is also used to categorize the epitope binding characteristics of panels of antibodies against a single target. This epitope binning experiment was designed to determine whether two different antibodies bind to the same epitope. If two antibodies bind to the same epitope of the antigen, then the binding of the first antibody will preclude the binding if the second antibody. If each antibody in a tested pair binds to a completely independent epitope, then binding of the first antibody will have no effect on the binding of the second. Through repeated testing, the antibodies are grouped according to epitope binding specificity. This experiment was performed using the Octet Red96 System (Pall ForteBio) with Bio-Layer Interferometry (BLI) to detect and analyze the interaction of biological molecules. Antigen was bound to the disposable sensors, then additional binding of antibody to the antigen was measured by change in delay of the reflection of the light passing through the sensor. A longer delay is indicative of more mass bound to the sensor, and this value is used to determine the degree of protein-antibody interaction.
In general terms: In BLI a coated tip is dipped into the sample, and binding shifts an interference pattern.

Assay [5] concerns the target T3, human BTN1A1-ECD-Fc. In words: direct ELISA, coated BTN1A1-Fc, denatured Ag.
Assay [6] concerns the target T4, human BTN1A1-ECD-His6 (human, UniProt Q13410 27-242, N-glycosylated (PNGase F sensitive)).
T4 construct: also called BTN1A1-His; hBTN1A1-His
T4 sequence: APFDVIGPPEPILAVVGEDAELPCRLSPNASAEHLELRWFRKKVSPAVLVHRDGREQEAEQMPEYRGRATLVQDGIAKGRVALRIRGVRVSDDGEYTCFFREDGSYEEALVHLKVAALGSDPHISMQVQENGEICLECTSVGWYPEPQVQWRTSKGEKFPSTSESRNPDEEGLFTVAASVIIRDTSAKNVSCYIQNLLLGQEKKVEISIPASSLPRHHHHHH
As to the kind of experiment: western blot after SDS-PAGE, native lanes (no DTT, no boiling) and reduced lanes (DTT, boiling). The source says:
FIG. 34—Dimer-specific binding of BTN1A1 antibody. FIG. 34 first panel from the left is an image of Coomassie blue stained SDS-PAGE gel, showing locations of monomer and dimer forms of the BTN1A1 protein in both native and reduced conditions along with a size standard. The second through fifth panels show western blots visualizing the monomer and dimer forms of the BTN1A1 protein in both native and reduced conditions using STC810, STC2602, STC2714 and STC 2781 antibody, respectively.
To determine the conformational specificity, Western blot analysis was performed using both dimer form of BTN1A1 (Fc fusion protein extracellular domain of BTN1A1) and monomer form of BTN1A1 (His-tagged protein of extracellular domain of BTN1A1). Proteins were treated with DTT (a reducing agent) and boiling or without reducing and denaturing by boiling. After running the proteins on SDS-PAGE, Western blot was performed by a standard protocol (FIG. 34). In a native condition (without a reducing agent and boiling), STC2714 recognized only Fc fusion protein, a dimerized form of BTN1A1 ECD, but not His-tagged protein, a monomer form of BTN1A1 ECD.

The values below come from patent US20200148768A1 (STCUBE, published 2020).

Where a chain is given by its changes, count along the chain named.

B1: STC1029 (antibody, V domains shown)
VH: EVQLQQSGPELVKPGASVKISCKASGYSFTGYFMNWVKQSHGKSLEWIGRINPYNGDTFYNQKFKDKATLTVDTSSSTAHMELRSLTSEESAVYYCARWTTVINFDYWGQGTTLTVSS
VL: SIVMTQTPKFLLVSAGDRVTITCKASQSVSYDVVWYQQKPGQSPKLLMYYVSNRYTGVPDRFTGSGYGTDFTFTISTVQAEDLAVYFCQQDYSSPPTFGGGTKLEIK
notes: kappa; also called mouse monoclonal anti-mouse BTN1A1 Antibody STC1029
The term Kd denotes a measure of binding affinity in units of concentration. A high value points to weaker binding. By koff is commonly meant a measure of how fast the partners let go of each other. As a reminder, the kon is the rate constant with which the complex forms. Low values mean slower complex formation, high ones faster complex formation. With B1, in assay [1], the Kd is 1.69 nM, the koff was 0.000427 s⁻¹ and the kon was 251000 M⁻¹ s⁻¹.

B2: STC2778 (antibody, V domains shown)
VH: QIQLVQSGPELKKPGETVKISCKASGYSFTNYGMNWVKQAPGKGLKWMGWINIYTGETTYGDDFKGRFAFSLETSASTAYLQINNLRSEDTATYFCVRGGTMIMYWGQGTTLTVSS
VL: DIVLTQSPATLSVTPGDSVSLSCRASQSISNNLHWHQQKSHESPRLLIKYASQSMSGIPSRFSGSGSGTDFTLSINSVETEDFGMYFCQQSDSWPLTFGAGTKLELK
In the case of B2, in assay [2], the “FACS (MFI)” value is 2340. Further, the “ELISA (Native Ag)” value in assay [3] is 1.8. This molecule also yielded a Kd in assay [4] of 0.436 nM. In addition, the “ELISA (Denatured Ag)” value in assay [5] came to 1.44.

B3: STC2602 (antibody, V domains shown)
VH: EVQLQQSGPELVKPGASVKISCKASGFSFIGYYIDWVKQSPGKSLEWIGYIYPSNGETSYHQKCKGKATLTVDKSSSTVNMQLNSLTSEDSAVYYCARYGNYDWFFDVWGAGTTVTVSS
VL: QIVLTQSPAIMSASPGEKVTITCSASSSVSYMHWFQQKPGTSPKFWIYSTSNLASGVPIRFSGSGSGTSYSLTISRMEAEDAATYYCQQRSSYPYTFGGGTKLEIK
B3: the “FACS (MFI)” value in assay [2] came to 69.5. The “ELISA (Native Ag)” value in assay [3] was 1.39. In assay [6], the binding result was “no binding”. The molecule also gave a Kd in assay [4] of 2.35 nM. Besides, the “ELISA (Denatured Ag)” value in assay [5] came to 0.128.

B4: STC2739 (antibody, V domains shown)
VH: QVQLKQSGPGLVQPSQSLSITCTVSGFSLTTHGVNWVRQSPGKGLEWLGVIWSGGSTDYNAAFISRLSISKDNSKSQVFFKMNSLQANDTAIYYCARPYYYGAMDYWGQGTSVTVSS
VL: B3 VL with A9S, M32I, F45L, I59A, S92I, Y95L, G99A, I105L
For B4, in assay [2], the “FACS (MFI)” value was found to be 841. Also, the “ELISA (Native Ag)” value in assay [3] turned out to be 0.956. Moreover, binding in assay [4] was put at a Kd of 0.0885 nM. The “ELISA (Denatured Ag)” value in assay [5] is 0.418.

B5: STC1012 (antibody, V domains shown)
VH: EVMLVESGGALVKPGGSLKLSCAASGFTFSNYVMSWVRQTPEKRLEWVATISSGGSYTNYPDSVKGRFIISRDNARNTLYLQMSSLRSEDTAIYYCVREGDGFYVFDYWGLGTTLTVSS
VL: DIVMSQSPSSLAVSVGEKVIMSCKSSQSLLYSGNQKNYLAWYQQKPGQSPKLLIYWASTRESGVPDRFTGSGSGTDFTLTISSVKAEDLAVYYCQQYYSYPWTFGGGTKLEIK
notes: kappa; pHrodo-labeled in the internalization assay; also called mouse monoclonal anti-mouse BTN1A1 antibody STC1012
In assay [1], B5 came in with a Kd of 4.1 nM, a koff of 0.000599 s⁻¹ and a kon of 146000 M⁻¹ s⁻¹.
